PMC8087782, “Developing Nanodisc-ID for label-free characterizations of membrane proteins” (Communications Biology, 2021)

Legend:
MalFGK2 = target: T1, MalFGK2 (Escherichia coli, UniProt P68187); conditions: APEX2-MSP1D1 nanodiscs; MalE and maltose
T1 construct: gene malK

[1] = target: vesicle (v-) SNAREs reconstituted in APEX2-MSP1D1 nanodiscs (UniProt P63045); assay: proximity labelling; nanodisc-ID: liposomes harboring t-SNAREs incubated with APEX2-MSP1D1 nanodiscs bearing v-SNAREs, with syt1-Ca2+; PL efficiency of t-SNAREs against v-SNARE nanodisc concentration; PBS, room temp; one-site fit; apparent
[2] = target: vesicle (v-) SNAREs reconstituted in APEX2-MSP1D1 nanodiscs (UniProt P63045); assay: proximity labelling; nanodisc-ID: liposomes harboring t-SNAREs incubated with APEX2-MSP1D1 nanodiscs bearing v-SNAREs, without syt1-Ca2+; PL efficiency of t-SNAREs against v-SNARE nanodisc concentration; PBS, room temp; one-site fit; apparent
[3] = target: vesicle (v-) SNAREs reconstituted in APEX2-MSP1D1 nanodiscs (UniProt P63045); assay: as above; remark: listed apart in the source

T1 sequence (P68187 whole entry): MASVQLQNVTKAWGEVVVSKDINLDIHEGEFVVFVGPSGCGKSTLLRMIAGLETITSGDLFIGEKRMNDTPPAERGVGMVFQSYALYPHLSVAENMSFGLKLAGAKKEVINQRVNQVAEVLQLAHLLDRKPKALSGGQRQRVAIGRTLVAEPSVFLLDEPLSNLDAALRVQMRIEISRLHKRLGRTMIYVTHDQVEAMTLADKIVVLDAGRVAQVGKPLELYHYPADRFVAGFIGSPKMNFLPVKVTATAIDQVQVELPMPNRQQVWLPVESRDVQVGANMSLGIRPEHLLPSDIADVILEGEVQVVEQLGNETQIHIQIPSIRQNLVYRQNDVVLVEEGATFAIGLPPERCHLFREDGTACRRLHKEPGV
T1 sequence (P02916 whole entry, further chain): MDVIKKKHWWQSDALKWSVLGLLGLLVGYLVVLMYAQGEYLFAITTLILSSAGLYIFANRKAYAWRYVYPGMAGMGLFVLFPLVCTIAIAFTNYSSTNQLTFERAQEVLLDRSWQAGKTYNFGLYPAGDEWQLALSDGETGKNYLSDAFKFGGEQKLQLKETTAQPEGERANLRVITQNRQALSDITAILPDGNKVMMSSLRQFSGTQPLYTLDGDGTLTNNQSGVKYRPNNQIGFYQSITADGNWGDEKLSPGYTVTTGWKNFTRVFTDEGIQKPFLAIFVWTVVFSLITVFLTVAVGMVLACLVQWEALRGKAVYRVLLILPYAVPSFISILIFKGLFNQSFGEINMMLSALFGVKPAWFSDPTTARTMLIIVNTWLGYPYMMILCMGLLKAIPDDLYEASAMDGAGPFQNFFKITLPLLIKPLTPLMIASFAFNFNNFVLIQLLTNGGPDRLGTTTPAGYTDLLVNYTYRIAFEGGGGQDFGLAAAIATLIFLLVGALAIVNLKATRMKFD
T1 sequence (P68183 whole entry, further chain): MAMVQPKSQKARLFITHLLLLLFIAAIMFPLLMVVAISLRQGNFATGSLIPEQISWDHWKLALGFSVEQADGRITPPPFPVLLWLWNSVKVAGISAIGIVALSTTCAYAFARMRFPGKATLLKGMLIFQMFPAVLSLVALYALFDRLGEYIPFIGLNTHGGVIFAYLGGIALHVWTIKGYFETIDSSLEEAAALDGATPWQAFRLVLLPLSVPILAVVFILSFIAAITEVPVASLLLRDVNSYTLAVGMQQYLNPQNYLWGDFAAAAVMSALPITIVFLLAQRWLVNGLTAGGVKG

Nc1ncnc2c1ncn2[C@@H]1O[C@H](COP(=O)(O)OP(=O)(O)OP(=O)(O)O)[C@@H](O)[C@H]1O [ATP]
photo-colorimetric ATPase assay (MalFGK2): the ATPase activity of MalFGK2 was responding to the addition of MalE and maltose

target (t-) membrane SNAREs embedded in liposomes (complex)
Kd [1]: 86 nM
Kd [2]: 2800 nM
Kd [3]: 2600 nM
